According to patent US20050048634:

B1: hDOT1L(1-416) (protein)
chain: MGEKLELRLKSPVGAEPAVYPWPLPVYDKHHDAAHEIIETIRWVCEEIPDLKLAMENYVLIDYDTKSFESMQRLCDKYNRAIDSIHQLWKGTTQPMKLNTRPSTGLLRHILQQVYNHSVTDPEKLNNYEPFSPEVYGETSFDLVAQMIDEIKMTDDDLFVDLGSGVGQVVLQVAAATNCKHHYGVEKADIPAKYAETMDREFRKWMKWYGKKHAEYTLERGDFLSEEWRERIANTSVIFVNNFAFGPEVDHQLKERFANMKEGGRIVSSKPFAPLNFRINSRNLSDIGTIMRVVELSPLKGSVSWTGKPVSYYLHTIDRTILENYFSSLKNPKLREEQEAARRRQQRESKSNAATPTKGPEGKVAGPADAPMDSGAEEEKAGAATVKKPSPSKARKKKLNKKGRKMAGRKRGRPKK
B2: hDOT1L(1-416) Δ(376-390) (protein)
chain: MGEKLELRLKSPVGAEPAVYPWPLPVYDKHHDAAHEIIETIRWVCEEIPDLKLAMENYVLIDYDTKSFESMQRLCDKYNRAIDSIHQLWKGTTQPMKLNTRPSTGLLRHILQQVYNHSVTDPEKLNNYEPFSPEVYGETSFDLVAQMIDEIKMTDDDLFVDLGSGVGQVVLQVAAATNCKHHYGVEKADIPAKYAETMDREFRKWMKWYGKKHAEYTLERGDFLSEEWRERIANTSVIFVNNFAFGPEVDHQLKERFANMKEGGRIVSSKPFAPLNFRINSRNLSDIGTIMRVVELSPLKGSVSWTGKPVSYYLHTIDRTILENYFSSLKNPKLREEQEAARRRQQRESKSNAATPTKGPEGKVAGPADAPMDSGPSKARKKKLNKKGRKMAGRKRGRPKK

Molecular target: oligo-nucleosomes purified from HeLa cells or chicken blood cells

| Protein | HMTase activity in the presence of increasing concentrations (1.5, 15, 150 uM) of the competitor peptide C-RS10 (SEQ ID NO:20) |
| --- | --- |
| B1 | effectively competed with increasing concentrations of the peptide |
| B2 | effectively competed with increasing concentrations of the peptide |
